Results published in the supplement of paper PMC10567573.

B1: CPXM2 (parent)
chain: TASTKNCMVGYDMGATRCDFTLSK

Variants of: B1
Test: protein stability index of a GFP-peptide fusion (GPS, HEK-293T) (PSI 1-6); higher = more stable
Settings: c terminus: a fixed tail appended
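Further: lentivirally expressed fusions sorted by FACS into six bins by GFP to DsRed ratio, PSI derived from sequencing read proportions per bin multiplied by bin number.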

Variant	protein stability index
TASTKNCMVGEDMGATRCDFTLSK	3.49
TASTKNCMVGVDMGATRCDFTLSK	2.33
TASTKNCMVGRDMGATRCDFTLSK	2.59
TASTKNCMVGHDMGATRCDFTLSK	3.32
TASTKNCMVGDDMGATRCDFTLSK	3.33
TASTKNCMVGPDMGATRCDFTLSK	2.31
TASTKNCMVGTDMGATRCDFTLSK	2.85
TASTKNCMVGMDMGATRCDFTLSK	2.49
TASTKNCMVGWDMGATRCDFTLSK	2.23
TASTKNCMVGADMGATRCDFTLSK	2.92
TASTKNCMVGGDMGATRCDFTLSK	3.49
TASTKNCMVGNDMGATRCDFTLSK	2.6
TASTKNCMVGQDMGATRCDFTLSK	3
TASTKNCMVGIDMGATRCDFTLSK	2.06
TASTKNCMVGCDMGATRCDFTLSK	2.07
TASTKNCMVGFDMGATRCDFTLSK	1.38
TASTKNCMVGLDMGATRCDFTLSK	2.41
TASTKNCMVGKDMGATRCDFTLSK	2.96
TASTKNCMVGSDMGATRCDFTLSK	2.28
TASTKNCMVGYDMGATRCGFTLSK	1.94
TASTKNCMVGYDMGATRCMFTLSK	1.82
TASTKNCMVGYDMGATRCIFTLSK	1.94
TASTKNCMVGYDMGATRCFFTLSK	1.75
TASTKNCMVGYDMGATRCLFTLSK	2.54

Variant	protein stability index
TASTKNCMVGYDMGATRCHFTLSK	2.59
TASTKNCMVGYDMGATRCKFTLSK	2.67
TASTKNCMVGYDMGATRCCFTLSK	1.91
TASTKNCMVGYDMGATRCAFTLSK	2.9
TASTKNCMVGYDMGATRCEFTLSK	2.18
TASTKNCMVGYDMGATRCNFTLSK	3.07
TASTKNCMVGYDMGARRCDFTLSK	3.06
TASTKNCMVGYDMGAGRCDFTLSK	2.27
TASTKNCMVGYDMGAKRCDFTLSK	2.74
TASTKNCMVGYDMGANRCDFTLSK	2.75
TASTKNCMVGYDMGACRCDFTLSK	2.26
TASTKNCMVGYDMGAWRCDFTLSK	2.39
TASTKNCMVGYDMGAYRCDFTLSK	2.17
TASTKNCMVGYDMGAERCDFTLSK	2.97
TASTKNCMVGYDMGAPRCDFTLSK	2.62
TASTKNCMVGYDMGAHRCDFTLSK	2.47
TASTKNCMVGYDMGADRCDFTLSK	3.72
TASTKNCMVGYDMGAARCDFTLSK	2.7
TASTKNCMVGYDMGAVRCDFTLSK	2.66
TASTKNCMVGYDMGAQRCDFTLSK	2.86
TASTKNCMVGYDMGAMRCDFTLSK	2.28
TASTKNCMVGYDMGALRCDFTLSK	2.45
TASTKNCMVGYDMGAFRCDFTLSK	1.75
TASTKNCMVGYDMGASRCDFTLSK	2.81

Variant	protein stability index
TASTKNCMVGYDMGAIRCDFTLSK	1.6
TASTKNCMVGYDMGATRIDFTLSK	2.84
TASTKNCMVGYDMGATRSDFTLSK	2.27
TASTKNCMVGYDMGATRHDFTLSK	2.8
TASTKNCMVGYDMGATRWDFTLSK	3.08
TASTKNCMVGYDMGATREDFTLSK	3.53
TASTKNCMVGYDMGATRQDFTLSK	1.75
TASTKNCMVGYDMGATRNDFTLSK	2.43
TASTKNCMVGYDMGATRFDFTLSK	2.42
TASTKNCMVGYDMGATRGDFTLSK	1.87
TASTKNCMVGYDMGATRKDFTLSK	3.57
TASTKNCMVGYDMGATRRDFTLSK	2.68
TASTKNCMVGYDMGATRMDFTLSK	2.59
TASTKNCMVGYDMGATRLDFTLSK	2.4
TASTKNCMVGYDMGATRTDFTLSK	2.66
TASTKNCMVGYDMGATRVDFTLSK	2.19
TASTKNCMVGYDMGATRADFTLSK	2.04
TASTKNCMVGYDMGATRDDFTLSK	2.98
TASTKNCMVGYDMGATRPDFTLSK	3.2
TASTKNCMVGYDMGATRYDFTLSK	2.46
TASTKNCMVGYDGGATRCDFTLSK	2.99
TASTKNCMVGYDRGATRCDFTLSK	2.5
TASTKNCMVGYDWGATRCDFTLSK	2.02
TASTKNCMVGYDKGATRCDFTLSK	1.91

Variant	protein stability index
TASTKNCMVGYDYGATRCDFTLSK	2.54
TASTKNCMVGYDLGATRCDFTLSK	2.58
TASTKNCMVGYDHGATRCDFTLSK	2.64
TASTKNCMVGYDIGATRCDFTLSK	2.11
TASTKNCMVGYDTGATRCDFTLSK	2.99
TASTKNCMVGYDVGATRCDFTLSK	3.02
TASTKNCMVGYDQGATRCDFTLSK	3.19
TASTKNCMVGYDPGATRCDFTLSK	2.31
TASTKNCMVGYDSGATRCDFTLSK	2.81
TASTKNCMVGYDFGATRCDFTLSK	2.01
TASTKNCMVGYDEGATRCDFTLSK	3.92
TASTKNCMVGYDCGATRCDFTLSK	2.08
TASTKNCMVGYDAGATRCDFTLSK	2.74
TASTKNCMVGYDDGATRCDFTLSK	3.76
TASTKNCMVGYDNGATRCDFTLSK	3.21
TASTKNCMVGYDMVATRCDFTLSK	1.75
TASTKNCMVGYDMAATRCDFTLSK	2.89
TASTKNCMVGYDMYATRCDFTLSK	1.59
TASTKNCMVGYDMDATRCDFTLSK	3.63
TASTKNCMVGYDMQATRCDFTLSK	2.44
TASTKNCMVGYDMCATRCDFTLSK	1.99
TASTKNCMVGYDMIATRCDFTLSK	2.31
TASTKNCMVGYDMFATRCDFTLSK	1.93
TASTKNCMVGYDMSATRCDFTLSK	2.5

Variant	protein stability index
TASTKNCMVGYDMHATRCDFTLSK	3
TASTKNCMVGYDMWATRCDFTLSK	2.15
TASTKNCMVGYDMRATRCDFTLSK	2.88
TASTKNCMVGYDMKATRCDFTLSK	2.76
TASTKNCMVGYDMTATRCDFTLSK	2.76
TASTKNCMVGYDMPATRCDFTLSK	2.84
TASTKNCMVGYDMNATRCDFTLSK	3.17
TASTKNCMVGYDMMATRCDFTLSK	2.17
TASTKNCMVGYDMLATRCDFTLSK	2.31
TASTKNCMVGYDMEATRCDFTLSK	2.97
TASTKNCMVGYDMGATQCDFTLSK	3.67
TASTKNCMVGYDMGATNCDFTLSK	3.32
TASTKNCMVGYDMGATVCDFTLSK	3.7
TASTKNCMVGYDMGATSCDFTLSK	3.31
TASTKNCMVGYDMGATECDFTLSK	3.79
TASTKNCMVGYDMGATYCDFTLSK	2.63
TASTKNCMVGYDMGATACDFTLSK	3.87
TASTKNCMVGYDMGATHCDFTLSK	2.72
TASTKNCMVGYDMGATICDFTLSK	3.2
TASTKNCMVGYDMGATPCDFTLSK	3.57
TASTKNCMVGYDMGATWCDFTLSK	2.13
TASTKNCMVGYDMGATLCDFTLSK	3.53
TASTKNCMVGYDMGATFCDFTLSK	2.81
TASTKNCMVGYDMGATCCDFTLSK	3.49

Variant	protein stability index
TASTKNCMVGYDMGATMCDFTLSK	3.07
TASTKNCMVGYDMGATDCDFTLSK	3.96
TASTKNCMVGYDMGATTCDFTLSK	3.38
TASTKNCMVGYDMGATKCDFTLSK	3.28
TASTKNCMVGYDMGATGCDFTLSK	3.72
TASTKNCMVGYCMGATRCDFTLSK	1.88
TASTKNCMVGYIMGATRCDFTLSK	1.58
TASTKNCMVGYFMGATRCDFTLSK	1.62
TASTKNCMVGYGMGATRCDFTLSK	1.89
TASTKNCMVGYKMGATRCDFTLSK	2.47
TASTKNCMVGYPMGATRCDFTLSK	2.15
TASTKNCMVGYEMGATRCDFTLSK	2.02
TASTKNCMVGYSMGATRCDFTLSK	2.72
TASTKNCMVGYLMGATRCDFTLSK	1.21
TASTKNCMVGYVMGATRCDFTLSK	2.44
TASTKNCMVGYYMGATRCDFTLSK	1.69
TASTKNCMVGYQMGATRCDFTLSK	2.14
TASTKNCMVGYRMGATRCDFTLSK	2.58
TASTKNCMVGYWMGATRCDFTLSK	1.98
TASTKNCMVGYMMGATRCDFTLSK	1.46
TASTKNCMVGYTMGATRCDFTLSK	1.98
TASTKNCMVGYAMGATRCDFTLSK	2.37
TASTKNCMVGYNMGATRCDFTLSK	2.02
TASTKNCMVGYHMGATRCDFTLSK	2.14

Variant	protein stability index
TASTKNCMVGYDMGHTRCDFTLSK	2.89
TASTKNCMVGYDMGCTRCDFTLSK	1.8
TASTKNCMVGYDMGRTRCDFTLSK	1.89
TASTKNCMVGYDMGWTRCDFTLSK	2.71
TASTKNCMVGYDMGPTRCDFTLSK	2.33
TASTKNCMVGYDMGDTRCDFTLSK	2.78
TASTKNCMVGYDMGVTRCDFTLSK	3.16
TASTKNCMVGYDMGFTRCDFTLSK	2.51
TASTKNCMVGYDMGLTRCDFTLSK	2.71
TASTKNCMVGYDMGYTRCDFTLSK	2.19
TASTKNCMVGYDMGQTRCDFTLSK	2.77
TASTKNCMVGYDMGGTRCDFTLSK	2.61
TASTKNCMVGYDMGSTRCDFTLSK	1.68
TASTKNCMVGYDMGTTRCDFTLSK	2.37
TASTKNCMVGYDMGETRCDFTLSK	2.75
TASTKNCMVGYDMGMTRCDFTLSK	2.07
TASTKNCMVGYDMGITRCDFTLSK	2.58
TASTKNCMVGYDMGKTRCDFTLSK	2.84
TASTKNCMVGYDMGNTRCDFTLSK	2.62
TASTKNCMQGYDMGATRCDFTLSK	3.5
TASTKNCMSGYDMGATRCDFTLSK	2.36
TASTKNCMYGYDMGATRCDFTLSK	2
TASTKNCMRGYDMGATRCDFTLSK	2.18
TASTKNCMTGYDMGATRCDFTLSK	3.22

Variant	protein stability index
TASTKNCMWGYDMGATRCDFTLSK	2.09
TASTKNCMVFYDMGATRCDFTLSK	1.58
TASTKNCMVLYDMGATRCDFTLSK	2.38
TASTKNCMVSYDMGATRCDFTLSK	2.75
TASTKNCMVPYDMGATRCDFTLSK	1.76
TASTKNCMVRYDMGATRCDFTLSK	1.84
TASTKNCMVEYDMGATRCDFTLSK	2.69
TASTKNCMVWYDMGATRCDFTLSK	1.64
TASTKNCMVYYDMGATRCDFTLSK	3.56
TASTKNCMVVYDMGATRCDFTLSK	2.72
TASTKNCMVQYDMGATRCDFTLSK	1.73
TASTKNCMVHYDMGATRCDFTLSK	1.74
TASTKNCMVTYDMGATRCDFTLSK	1.93
TASTKNCMVMYDMGATRCDFTLSK	1.96
TASTKNCMVAYDMGATRCDFTLSK	1.97
TASTKNCMVDYDMGATRCDFTLSK	2.37
TASTKNCMVKYDMGATRCDFTLSK	2.42
TASTKNCMVCYDMGATRCDFTLSK	2.2
TASTKNCMVIYDMGATRCDFTLSK	1.67
TASTKNCMVNYDMGATRCDFTLSK	1.86
